Target: full-length epidermal growth factor receptor (EGFR) with a SNAP tag at the C-terminal position, embedded in a lipid bilayer nanodisc (UniProt P00533)

B1: Human epigen (ligand)
chain: AAVTVTPPITAQQGNWTVNKTEADNIEGPIALKFSHLCLEDHNSYCINGACAFHHELEKAICRCFTGYTGERCEHLTLTSYAVDSYEKYIAIGIGVGLLLSGFLVIFYCYIRKRCLKLKSPYNVCSGERRPL
B1 showed a smFRET donor fluorescence lifetime of WT EGFR in nanodiscs (both bilayers) with 1 μM epigen; peak of the distribution of 1.5 ns.
